# Source: US20160038588A1, “Myostatin Antagonism in Human Subjects” (AMGEN INC., priority 2013, published 2016)
# T1: myostatin (Homo sapiens, UniProt O14793)
# T1 construct: To produce mature myostatin, the pooled promyostatin was enzymatically cleaved between the propeptide and mature myostatin C terminal; made in house
# T1 sequence (O14793 267-375): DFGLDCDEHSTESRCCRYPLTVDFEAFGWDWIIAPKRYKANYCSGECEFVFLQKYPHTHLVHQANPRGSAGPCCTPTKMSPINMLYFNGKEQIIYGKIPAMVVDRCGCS
# B1: ActRIIB/Fc: soluble receptor fusion protein actRIIB/Fc (R &D Systems) (protein)
# chain: SGRGEAETRECIYYNANWELERTNQSGLERCEGEQDKRLHCYASWRNSSGTIELVKKGCWLDDFNCYDRQECVATEENPQVYFCCCEGNFCNERFTHLPEAGGPEVTYEPPPTAPT
# modifications: left off: a dimerising Fc or GST
# Biological target: T1, myostatin
# Assay: BIAcore affinity analysis on immobilized myostatin
# Assay type: binding
# Details: Biacore assay
# Source text: The antagonists including the binding agents described herein can be tested for their ability to bind myostatin and inhibit or block myostatin activity. Any number of assays or animal tests may be used to determine the ability of the agent to inhibit or block myostatin activity. Several assays used for characterizing the peptides and peptibodies of the present invention are described in the Examples below. One assay is the C2C12 pMARE-luc assay which makes use of a myostatin-responsive cell line (C2C12 myoblasts) transfected with a luciferase reporter vector containing myostatin/activin response elements (MARE). Exemplary peptibodies are assayed by pre-incubating a series of peptibody dilutions with myostatin, and then exposing the cells to the incubation mixture. The resulting luciferase activity is determined, and a titration curve is generated from the series of peptibody dilutions. The IC50 (the concentration of peptibody to achieve 50% inhibition of myostatin activity as measured by luciferase activity) was then determined. […]
# Direct binding assays were used to screen and rank the peptibodies in order of their ability to bind to immobilized myostatin. […] Peptibody binding kinetic parameters including ka (association rate constant), kd (dissociation rate constant) and KD (dissociation equilibrium constant) were determined using the BIA evaluation 3.1 computer program (Biacore, Inc.). […]
molecule,measurement,value
B1,Kd,~7 nM
